From patent US10350264B2, “Compositions and methods for modulating NCOA4-mediated autophagic targeting of ferritin” (Dana-Farber Cancer Institute, Inc., priority 2014, dated 2019)
Entries after “also recorded” stand apart in the source; their conditions may differ.

T1: NCOA4(aa 383-522)-GST (Homo sapiens, UniProt Q13772)
T1 construct: NCOA4(aa 383-522)-GST or GST alone was incubated with; made in house; host or cells: E. coli BL21 (DE3)
T1 sequence (Q13772 383-522): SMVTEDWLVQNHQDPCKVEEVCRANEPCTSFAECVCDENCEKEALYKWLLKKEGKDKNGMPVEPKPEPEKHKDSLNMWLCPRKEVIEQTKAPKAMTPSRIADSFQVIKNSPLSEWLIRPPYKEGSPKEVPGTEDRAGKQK

T2: HERC2-FLAG fragment (F3, HERC2 amino acids 1700-2700) (Homo sapiens, UniProt O95714)
T2 construct: HERC2-FLAG fragment (F3, HERC2 amino acids 1700-2700) was produced as described in Bekker-Jensen et al; expressed in transfected cells; host or cells: 293T cells (transient transfection, lysate used)
T2 sequence (O95714 1700-2700): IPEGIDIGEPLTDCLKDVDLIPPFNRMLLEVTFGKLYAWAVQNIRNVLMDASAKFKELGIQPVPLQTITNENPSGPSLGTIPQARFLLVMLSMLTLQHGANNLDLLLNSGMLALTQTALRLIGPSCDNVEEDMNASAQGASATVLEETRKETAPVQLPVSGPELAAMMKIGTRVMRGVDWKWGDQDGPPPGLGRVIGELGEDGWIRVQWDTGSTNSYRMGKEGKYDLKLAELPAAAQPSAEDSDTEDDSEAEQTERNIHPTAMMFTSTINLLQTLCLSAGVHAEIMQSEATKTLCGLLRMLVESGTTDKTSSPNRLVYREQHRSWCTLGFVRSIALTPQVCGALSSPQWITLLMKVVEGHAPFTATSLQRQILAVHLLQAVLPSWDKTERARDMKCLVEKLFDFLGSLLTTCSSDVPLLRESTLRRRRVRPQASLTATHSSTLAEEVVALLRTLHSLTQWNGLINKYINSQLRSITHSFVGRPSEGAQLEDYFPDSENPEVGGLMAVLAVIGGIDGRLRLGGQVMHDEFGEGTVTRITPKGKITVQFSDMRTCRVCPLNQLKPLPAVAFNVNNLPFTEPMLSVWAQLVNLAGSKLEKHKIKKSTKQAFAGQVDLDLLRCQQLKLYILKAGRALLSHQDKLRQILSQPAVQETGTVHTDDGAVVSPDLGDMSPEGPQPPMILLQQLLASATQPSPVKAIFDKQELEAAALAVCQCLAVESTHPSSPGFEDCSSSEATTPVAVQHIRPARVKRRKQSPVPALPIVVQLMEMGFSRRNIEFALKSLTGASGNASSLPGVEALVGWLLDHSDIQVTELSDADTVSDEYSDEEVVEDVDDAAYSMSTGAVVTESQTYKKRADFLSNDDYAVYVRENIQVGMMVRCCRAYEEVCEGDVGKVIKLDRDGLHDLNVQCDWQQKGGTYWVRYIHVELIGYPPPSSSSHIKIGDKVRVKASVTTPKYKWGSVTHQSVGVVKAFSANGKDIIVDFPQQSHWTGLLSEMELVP

B1: aa 383-522: fragment of NCOA4 SEQ ID NO: 4 (protein)
chain: SMVTEDWLVQNHQDPCKVEEVCRANEPCTSFAECVCDENCEKEALYKWLLKKEGKDKNGMPVEPKPEPEKHKDSLNMWLCPRKEVIEQTKAPKAMTPSRIADSFQVIKNSPLSEWLIRPPYKEGSPKEVPGTEDRAGKQK
modifications: GST tag; Homo sapien

What was measured:
[1] = molecular target: T1, NCOA4(aa 383-522)-GST; test: GST pull-down assay of WT and point mutant FTH1 using NCOA4(aa 383-522)-GST; assay type: binding; conditions: 40 μg FTH1, InstantBlue stain; FIGS. 23A-D
Protocol: Beads were washed thoroughly with 150 mM NaCl, 20 mM Tris (pH 7.4), 2 mM dithiothreitol (DTT), 0.5% (w/v) Nonidet P-40, leaving 50-100 μg of GST-fusion protein bound to the beads. Beads were then mixed with 40 μg of recombinant human WT or point mutant FTH1 produced in Rosetta E. coli (EMD Millipore, 70953-3). The assay mix was incubated for 30 minutes at 4° C., and beads were washed three times with 1 ml wash buffer. Proteins were eluted with SDS sample buffer and analyzed by 4-20% gradient SDS-PAGE. InstantBlue Stain (Expedeon: catalog #ISB1L) was used to visualize GST-NCOA4 bands and FTH1 bands.

[2] = tested on: 8988T and U2OS cells; test: chelation assay, ferritin degradation by FTH1 immunoblot; assay type: cell-based, human; conditions: FAC loading then chelators (DFO, BPS, DFP); FIG. 3(a)-(b), FIG. 19
Protocol: Chelation assays were performed similarly to those previously described with slight modifications [Asano et al., supra]. Briefly, U2OS and 8988T cells stably expressing shRNAs as described above (shGFP, shNCOA4-1, shNCOA4-2, selected with puromycin) were plated (2×10^5 cells/well) and cultured for 24 hours in FAC (36 μM or 180 μM). Cells were washed three times with PBS and subjected to iron chelation with the described chelators minus or plus lysosomal protease inhibitors (E-64d and PepstatinA) or the proteasomal inhibitor, Bortezomib. Cells were harvested at the indicated time points, washed with PBS, and lysed in 50 mM Tris-HCl (pH 7.4), 150 mM NaCl, 1% Nonidet P40, 0.1% SDS, 2 mM EDTA, 2 mM DTT, protease inhibitors and analyzed by 4-20% gradient SDS-PAGE followed by immunoblotting with the indicated antibodies. Experiments were performed at a minimum in biological triplicate. Quantitation of Western blots was performed using ImageJ [Schneider, C. A., et al. Nature Methods 9, 671-675 (2012)]. Cells were treated similarly for immunofluorescence experiments (including IMR90 and HPDE cells). Cells plated on glass coverslips were treated as described and fixed with 4% paraformaldehyde prior to immunofluorescence using anti-ferritin and anti-LAMP2. Data were collected as described above.

[3] = molecular target: T3, apo-ferritin purified from equine spleen (Equus caballus, UniProt Q8MIP0); test: GST pull-down assay of ferritin using GST-NCOA4 fragments; assay type: binding; conditions: anti-FTH1 immunoblot
T3 construct: apo-ferritin purified from equine spleen; purchased Sigma F4503; host or cells: equine spleen
From the text: GST-tagged NCOA4 constructs were also made to probe the interactions of C-terminal portions of NCOA4 with ferritin. NCOA4-truncation constructs were produced using Gateway cloning (Invitrogen, Life Technologies, catalog #11789-013 and 11791-019) into a pDEST60 N-terminal GST fusion plasmid (GST-NCOA4) from EMD Millipore (Gateway Nova pET-60-DEST, product #71851-3) and transformed in E. coli BL21 (DE3) cells (New England Biosciences, C2527I).
NCOA4 truncation constructs were designed based on NCBI reference sequence: NP_001138735.1 (SEQ ID NO: 4). In particular, fragments of SEQ ID NO: 4 consisting of amino acids (aa) 1-245, aa 235-614, aa 235-560, aa 235-401, aa 383-560, aa 545-614, aa 383-522, aa 510-560, aa 383-436, aa 436-485, aa 475-522, aa 475-500, aa 480-500, aa 480-504, aa 485-509, aa 490-514, aa 495-522 were designed. Protein expression in the DE3 cells was induced with 1 mM isopropyl-beta-D-thiogalactopyranoside (IPTG) (Sigma, I6758-10 G) for 3 hours at 37° C. Cells were collected by centrifugation, re-suspended in 25 mM Tris-HCl (pH 7.4), 10% (w/v) sucrose and lysed with a single freeze-thaw cycle followed by sonication. After centrifugation, a GST pull-down assay was performed.
In the GST pull-down assay, lysates were incubated with 10 μl of a 50% (v/v) slurry of glutathione Sepharose 4B beads (GE Healthcare Lifesciences, 17-0756-01) for 30 minutes at 4° C. Beads were washed thoroughly with 150 mM NaCl, 20 mM Tris (pH 7.4), 2 mM dithiothreitol (DTT), 0.5% (w/v) Nonidet P-40, leaving 50-100 μg of GST-fusion protein bound to the beads. Beads were then mixed with 0.5-2 μg of apo-ferritin purified from equine spleen (Sigma F4503) or recombinant human FTH1 or FTL produced in Rosetta E. coli (EMD Millipore, 70953-3). The assay mix was incubated for 2 hours at 4° C., and beads were washed four times with 1 ml wash buffer. Proteins were eluted with SDS sample buffer and analyzed by 4-20% gradient SDS-PAGE and immunoblotting with anti-FTH1 antibody (as above) or anti-FLAG antibody (Sigma, F1804-200 UG). Pounceau stain was used to visualize GST-NCOA4 bands. (Pounceau, Sigma, P7170-1 L, protocol as per product manual).

[4] = tested on: FTH1; test: IVT-based interaction experiment with His-GST-HA tagged NCOA4 constructs and GST pull-down; assay type: binding; conditions: equal load of fragments; FIG. 9
[5] = tested on: 8988T cells; test: NCOA4 protein levels while blocking autophagic flux (immunoblot); assay type: cell-based, human; conditions: CQ or BAF 8 hours, FIG. 2(c)
[6] = tested on: PANC1 cells; test: autophagosome formation, fluorescence microscopy of cells expressing GFP-MAP1LC3B; assay type: cell-based, human; conditions: Wortmannin 200 nM 1 h, chloroquine 25 μM 4 h, FIG. 13(b)
[7] = molecular target: T2, HERC2-FLAG fragment (F3, HERC2 amino acids 1700-2700); test: GST pull-down assay of HERC2-FLAG Fragment 3 using GST-NCOA4 fragments; assay type: binding; conditions: 293T lysate expressing HERC2-FLAG F3, anti-FLAG immunoblot; FIG. 12
Protocol: To map the interaction of NCOA-4 with HERC2, the GST-NCOA4 truncation constructs described above were also tested in a GST pull-down assay with HERC2-FLAG expressing 293T cell line. HERC2-FLAG fragment (F3, HERC2 amino acids 1700-2700) was produced as described in Bekker-Jensen et al., Nature Cell Biology (2010) 12; 80-86. The HERC2-FLAG F3 was transiently transfected into 293T cells using standard transfection procedures using PEI (Polysciences, #23966-2).
Lysates were obtained, as above, and incubated with 10 μl of a 50% (v/v) slurry of glutathione Sepharose 4B beads for 30 minutes at 4° C. Beads were washed thoroughly with 150 mM NaCl, 20 mM Tris (pH 7.4), 2 mM DTT, 0.5% (w/v) Nonidet P-40, leaving 50-100 μg of GST-fusion protein bound to the beads. Beads were then mixed with 300 μg of lysate from a HERC2-FLAG expressing 293T cell line, as above. The assay mix was incubated for 2 hours at 4° C., and beads were washed four times with 1 ml wash buffer. Proteins were eluted with SDS sample buffer and analyzed by 4-20% gradient SDS-PAGE and immunoblotting with anti-HERC2 antibody or anti-FLAG antibody, as above. Coomassie stain was used to visualize GST-NCOA4 bands as above.

T3 sequence (Q8MIP0 whole entry, the tested form may be a part): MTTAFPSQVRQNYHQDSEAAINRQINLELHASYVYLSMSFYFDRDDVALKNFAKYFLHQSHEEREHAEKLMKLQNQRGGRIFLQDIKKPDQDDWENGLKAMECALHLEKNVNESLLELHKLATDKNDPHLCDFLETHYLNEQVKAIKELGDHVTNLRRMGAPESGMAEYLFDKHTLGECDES
T3 sequence (P02791 2-175 partner limits assumed): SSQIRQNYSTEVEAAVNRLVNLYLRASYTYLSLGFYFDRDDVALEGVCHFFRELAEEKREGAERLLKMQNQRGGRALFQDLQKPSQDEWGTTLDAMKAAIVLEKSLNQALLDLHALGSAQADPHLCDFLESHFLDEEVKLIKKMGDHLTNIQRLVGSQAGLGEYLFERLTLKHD

Row | Molecule | ferritin degradation in response to iron chelation [2] | binding of GST-NCOA4 fragment to ferritin ([3]; FIGS. 7, 8, 11) | pull-down of FTH1 by IVT GST-NCOA4 fragment [4] | other results
1 | FTH1 R23A point mutant: recombinant human ferritin heavy chain with R23A point mutation, produced in E. coli |  |  |  | binding of FTH1 (WT or point mutant) to NCOA4(383-522)-GST [1]: bound only very weakly
2 | 5′ CCCAGGAAGTATTACTTAATT 3′ (expressed or natural sequence) [shNCOA4-1] | rescued ferritin degradation |  |  | 
3 | KAMTPSRIADSFQVIKNSPLSEWLIRPPYKEGSPKEVPGTEDRAGKQK (Homo sapien) [aa 475-522] |  | interacted with ferritin; also recorded: bound to ferritin | equally pulled down (bound to) FTH1 | binding of GST-NCOA4 fragment to ferritin ([3]; FIGS. 7, 8, 11, listed as amino acids 475-522): bind to ferritin
4 | 5′ GCTGGCAAACAGAAGTTTAAA 3′ (expressed or natural sequence) [shNCOA4-2] | rescued ferritin degradation |  |  | 
5 | CCN(CC)CCCC(C)Nc1ccnc2cc(Cl)ccc12 (centres unmarked) [chloroquine, Chloroquine] |  |  |  | NCOA4 protein levels [5]: markedly increased; effect on autophagosomes [6]: caused accumulation of autophagosomes
6 | B1 |  | bind to ferritin | equally pulled down (bound to) FTH1 | binding of GST-NCOA4 fragment to HERC2-FLAG [7]: bound to HERC2-FLAG
